The target of this experiment is Taxol-stabilized microtubules (MTs) from HeLa S3 cells (human (endogenous in HeLa S3)) (UniProt P68363). Put plainly: solid-state NMR (J-based 2D 15N-HSQC); unlabeled MAP7-MTBD added to [13C,15N]-labeled MTs at molar ratio 2:1 MAP7-MTBD:MT in BRB80 with 20 uM taxol, 30 °C for 30 min, pelleted at 180,000 x g; MAS 44 kHz, actual temperature 293 K; bound population from a two-state model, P_bound = 1 - I_bound/I_free.

B1: MAP7-MTBD (microtubule-binding domain of MAP7D3, residues 59-170) (domain or fragment)
chain: DGSMLKNDIKQRLARERREEKRRQQDANKETQLLEKERKTKLQYEKQMEERQRKLKERKEKEEQRRIAAEEKRHQKDEAQKEKFTAILYRTLERRRLADDYQQKRWSWGGSA
With B1, the bound population of alpha-tubulin Tyr451 (P bound) amounted to 65%; the bound population of beta-tubulin Ala444 (P bound) was determined as 25%; the bound population of tail residues around the EGE and FGE segments (P bound) is less than 80%.

These data come from article PMC6940360.
